Measured values: the DeepSol protein solubility set

Assay: soluble on expression in E. coli; label from the status in PepcDB or PDB records

Sequence | soluble on expression in E. coli
MNRYRKILVAGIIDQEEQPALKRALDIANRTTKPSEITLFCTTYDFSYEMTSMLSADERMAMRNGVVSQKVKMLNDVIADYSKSDHVTITIKVVWHNRPYEAIINEIFDDSYNILIKATRQHAKLETVFFTPTDWHLLRKSPIPVLLVKERPWPENGNILASVHVGSENPAHLQLNDKMVDEAIYFAEVLNSTPHLVNAYPSTPPSIHVELPEFNAVQYKDAIRGHHLTQMKALRQKYGIPEEQTHVYEGPTEEVISEVEDELTAGLVILGTTGRTGLSAIFIGNTAENTLDLLNCDILALKPDGYISPLDPNHIS | not soluble
MGSDKIHHHHHHMTAVNIWKPEDNIPREILAILSKPHPNYQLAFLNIIQLLKTQRRTGWVDHGIDPCESISDHMYRMGLTTMLITDKNVDRNKCIRIALVHDFAESLVGDITPNDPMTKEEKHRREFETVKYLCESIIRPCSESASREILDDWLAYEKQTCLEGRYVKDIDKYEMLVQCFEYEQKYNGKKDLKQFLGAINDIKTDEVKKWTQSLLEDRQAFFDSLKE | not soluble
MPCQSKKNPSEVHISSGRDLVQRTFVFSNTTGKDFLLKLITSSEAISFPTNIFRFPPSSHRVIQFRVNSSKLSHWDKLNMSIKGYVMPIYAKNLKQFIDQKSTAGTQDQEAFSLAVKFTDQYSAPQVLINLPGSATCIESMDHPVGIEELDTITAVNIEKDALTAAPIGNLMGFVEEYKRRNTNKGGCWLSNYICGGEEEQKEKKSIRGASRRSSRSSKKSAKSAGSSSCRSQSRKKNKKSQVNVCLEATPCGGSTIQA | not soluble
MVAGNSAHEMVSILNQNRTARKLGKLNESPGLGCMALQYVELCEGNCNVNNTLSCEHPEDDFTQVFAPNCGVELPTFGTITGHILGCSSKYAAPEVAFSDILFRDSSALSVLRNRSHTEVGVGMARLHKGTFFWCLLFSDGVKNSSFVLEDNGRGIKQRTGCYSGSAFPCSSNAHMICMRLLNSFLGLLFSSFCLFEKHLKF | soluble
MSLKPVGLNYFSEKKGLLTDEDLMEDEHYCGMSFRGDEKKSIFGIFDGYGGIGAARETRRTLPNIIQKLIEQGLDSKEILEKGFSEVDEGMNKEEFMDIGCTCTLIYIWEEDNKVYIRSGNVGDSTCFVKKMNKGKPEIITLSQDHKVTSACEQKRMKEAGITLVEGQKRINGVGVARTLANHFVKNLNIGMIGTPYISPAIVLESGDEIILCSDGIWDVITPEKAFEMMENTQVSEAPKVIMEESMKITECRDNVTVIVVKILEGHHHHHH | not soluble
MYDVTIIGAGVSSIFMAYSLAKSNKKVLILDKGKALEDRHCPLDEGKVCNCTTCDKYFGFGGLGKSEGKFNYTNGFGGELEKKVGKEGFLQLMAEVDEILCQFGGSSVSKYSTENSSLTKRAEACGLQMLTTEVRHLGTTLSSNIFQQLYEFLLTKIKIQFHIDVQHILKQEDHFTIDTNQGTVQTKQLVFATGRSGADWLKEMCSSLNISQEQTRVDLGIRVEMKEHQLRSILKDTFETKLSYQGEHFTATTYCMNPKGRIIRKYEEGLVMPDGQNFREQGTGTSNLNFTLFIPSYFPTLKEANVYASSIIKGINQGRDRIVIQRLEDLLKKQPTAENSMEHSRIQPTLQGDYGDLNQEIPQLYIEGLKEFLLRLEQFIQEPIDQHTLLYGIDGKFYAPTIKINNHFETSIHGLFLIGDCSGVTHSLSQAAASGLYVGKYLSDILEHHHHHH | soluble
MDREHLIKLACARNPDLEMCEQLKARNVRDSNSGKLEMIEPPPLPPSMKAAKRRDIHAAHDENSEQKPVRYRALSAEEVRILQTKCARVGPLVQKHCQPKKTSARNAGRCAAYFRDCAQFIEKGDPLGAIANSFDSGVNINLANVDVKGIPYYPLNEEGAVGVGVGLGIPFGAWGGGASTSVGVRDYFHGDQEVGANWYDGKYGYKNHWNIPLVQSLGVEGGQHNTVSFPLHGKDAGNLKVDNGYGVGGYYQQNDHVGVNYKEGDVRHTFGVSSPFVGAGFQTGQAVAFPGLDVWERALG | not soluble
MQFSTVASIAAVAAVASAAANVTTATVSQESTTLVTITSCEDHVCSETVSPALVSTATVTVDDVITQYTTWCPLTTEAPKNGTSTAAPVTSTEAPKNTTSAAPTHSVTSYTGAAAKALPAAGALLAGAAALLL | soluble
MDSSQVPNPVLVLVGSPRRDGNSALLAQAVAEGARQSGAAATLLFLDDYIAGFLTDEKEADARRPDDRYGELFFDHFLPARAVVLCTPVYWYGMSAQAKAFFDRSFTYYSASHPRHAEVLRRMTGKRLALAVSSEETYPGAALGIVHQLQEFTRYTHSQFVGMVHGAGNRRGEVAHDPRRPLQAAHRLGHDLLSLPYSDYRIDSPRDHQVWPGAPA | not soluble
MSLKLVENLALKYYDKVVDLRHQIHMHPELEFEEENTAHLVCKILDEFGIKYQKNIAKTGILAIIEGKKKSQKKPKCVLLRADMDALPVQEKTNLSYASKIDGKMHACGHDGHTAGLLGAALILNELKDEFCGTIKFMFQPAEEGSGGAKPMIESGVLENPYVDAVFGCHLWGPLLENTAQIVSGEMMAGTDIFDLEFIGRGGHGAHPHTCIDPIIMTTQFVNNIQSVISRRLAPYEAGVITVGQICAGTTYNVIPTNAYLKGTVRFLNDKTQDILKSSLEEVAAATAKSNGGDYKLKYTKEFPPLINDEKAVLIARKAFAKVLGEENIIVSSKPDMGAEDFAFLTRERMGAYVFVGISKDLNHPALHHSSTFCWDDENLKVLMQGDVMMALEFLNEGGSHHHHHH | soluble
MKFDIVVIGGGLAGASLLAALKGSGLRLALIESRPPAPLPDDDSWDARVYAISPGSVEFLQSSGIWQRMNAARITPVHEMRVHGDDNAARIDFSAYESGVPELACIIENRQLQHAVWEELAGAENVQIFCPAQCDSLAWQDSHVELTLADGTVLQTALLIGADGINSRVREQAGIGVDRHSYYQTGVVANFETERVHHHIAYQWFRRDGILALLPLPGKRVSMVWSANTALADELLNLSAEALCDRVARAAEYELGSMRLVTAPLGFPLNFVHARSLIKPRLALIGDAAHGIHPLAGQGVNLGLRDVRELARLQRQFGGIGDCGEFSLLRCYERNRKEDILAMGWVTDGLQKLFGSEDAAIMRIRNVGLGITNRLPLLKNRLMRHALSLEHHHHHH | not soluble
MGSDKIHHHHHHMKKVERINTIMRYINNRSHFTISEIIREFNISRSTAIRDIREIEAMGMPLVAEVGRSGGYFVMHNSILPVVRFTDNEVKALFIAFMATRNQQLPYLKSRQSLAEKLLGLISETQQDDLVLLNQLLLFEGTNPHNPDLLELSDLPHPMLEKLIQILLLDRYLLITVKEEIKSYPIYLLHLYKEKSYWIIEGFDLKEEKKLMFPVDDLINIEPYTPKKRLHKKQILERLSKKDEAINLVFELGPKAIAQFKKYHPFKVSISYTNPYQSTAILKTFIDVHNSDEVTEMTNWLLFLGKDITIKEMPEEVLKDLQERLCLYTP | not soluble
LTLGNTTSSVILTNYMDTQYYGEIGIGTPPQTFKVVFDTGSSNVWVPSSKCSRLYTACVYHKLFDASDSSSYKHNGTELTLRYSTGTVSGFLSQDIITVGGITVTQMFGEVTEMPALPFMLAEFDGVVGMGFIEQAIGRVTPIFDNIISQGVLKEDVFSFYYNRDSENSQSLGGQIVLGGSDPQHYEGNFHYINLIKTGVWQIQMKGVSVGSSTLLCEDGCLALVDTGASYISGSTSSIEKLMEALGAKKRLFDYVVKCNEGPTLPDISFHLGGKEYTLTSADYVFQESYSSKKLCTLAIHAMDIPPPTGPTWALGATFIRKFYTEFDRRNNRIGFALAR | soluble
MFPKNAWYVACTPDELAGKPLGRRICDEPMVFYRGEDGRVAALEDFCPHRGAPLSLGFVEDGVLVCGYHGLAMGEDGRTRAMPGQRVRGFPCIRRFPVQERHGFVWVWPGAEEQADDALIPRLEWAESPDWAYGGGLYHIHCDYRLMIDNLMDLTHETYVHASSIGQKEIDEAAPTTRVEGDEVITSRHMQNVMAPPFWRMALRGNGLADDVAVDRWQICRFTPPSHVLIEVGVAHAGHGGYQAPAERKAASIVVDFITPESATSIWYFWGMARNFQAHDQALTESIREGQGKIFGEDLEMLESQQRNLLRHPRRDLLKLNIDAGGVQARRIIERLLADER | not soluble
MKNVLILGAGGQIARHVINQLADKQTIKQTLFARQPAKIHKPYPTNSQIIMGDVLNHAALKQAMQGQDIVYANLTGEDLDIQANSVIAAMKACDVKRLIFVLSLGIYDEVPGKFVEWNNAVIGEPLKPFRRAADAIEASGLEYTILRPAWLTDEDIIDYELTSRNEPFKGTIVSRKSVAALITDIIDKPEKHIGENIGINQPGTDGDKPFFM | soluble
MSLSSANGGHVDQSDHLALLPPNVRKKGRPTLVLDLDATLFYTSAELLNTPLDYFDMGEESTYRYLYLRPYALDFLGWASTVFEVIIWTAAMESYAEPRIRATEIDRYADVVLYRGACDMIDGSLVKNLAKLGRPLSDMIIVDDNPVSYALNVELAYPIPPFSGEEDDLELLRLVPILRKVLELSSLKRGIYKTIFSEGHHHHHH | soluble
MSLGPVENHSLPRTAAFFDLDKTVIAKSSTLTFSKSFYQGGLINRRAVLRTAYAQFVFLAGGADHDQMERMREYLSALCRGWNVRQVKEIVAETLHDLIDPIIYDEAASLIEEHHTAGRDVVIVSTSGAEVVEPIGELLGADRVVATRMIVGDDGCFTGEVEYYAYGPTKAEAIKELAASEGYDLARCYAYSDSATDLPMLESVGHPHAVNPDRALRREAIARQWPILDFHRPVRLKQRLPALSVPPREGHHHHHH | soluble
MSAPNPKAFPLADAALTQQILDVVQQAANLRQLKKGANEATKTLNRGISEFIIMAADCEPIEILLHLPLLCEDKNVPYVFVPSRVALGRACGVSRPVIAASITTNDASAIKTQIYAVKDKIETLLI | soluble
MGSDKIHHHHHHMIYIGLPQWSHPKWARLGITSLEEYARHFNCVEGNTTLYALPKAEIVDRWYAQTTDDFRFCFKFPATISHQAALRHCDDLVQAFFTRLAPLETRIGQYWLQLPAAFGPRDLPALWQFLDALPATFTYGVEVRHPCFFDKGEDEQRLNRGLHARGVNRVILDSRPVHAAHPHSEAVRDAQRKKPKVPVHAVVTASHPMVRFIGSDNMAQNREFFAAWLQKLPQWRQTTTPFLFLHTPDIAQAPELVNTLWHDLRSVLPEIGTAPSIPQQSSLF | not soluble
MGHHHHHHSHPQLLHFVDQYREQLIARVTSVEVVLDKLHGQVLSQEQYERVLAENTRPSQMRKLFSLSQSWDRKCKDGLYQALKETHPHLIMELWEKG | not soluble
MQMLDRLESEILADRVSEESRRWLASCGLTVEQMKNQMDPVYTPARKIHLYHCDHRGLPLALISTEGATAWCAEYDEWGNLLSDENPHHLQQLIRLPGQQYDEESGLYYNRHRYYDPLLGRYITQDPIGLKGGWNFYQYPLNPVINVDPQGLVDINLYPESDLIHSVADEINIPGVFTIGGHGTPTSIESATRSIMTAKDLAYLIKFDGNYKDGMTVWLFSCNTGKGQNSFASLEHHHHHH | not soluble
MTQTQPVGTLRLTIDDQGPQGQSRAVEQFHQGALRVIRPHYLDDSGQVCYTIIAIGGGYLGGDVYEQQFTIKDNAKALITTQSATKIYRTPQGPATQHTEINVGENAVLEYLADQTIAYREATYHQFTKVALHPSATFVMSEQITPGWHPDGKHFAYDEMRLHTEITDSTTGRLVLLDNLLLRPDSREGSFGWTEQYTHSGQMIVMGEGVDKQLVAELNEQLAAHPDVYGAVNFLSAPGTLLRGFIARTLSNRTEELINLHEHIASLLRGRWRGQEPVNLRKYLEHHHHHH | not soluble
